Assays:
Test in all cases: BLI; Octet Red96; 5 μg/mL antibody loaded onto Protein A biosensor, dipped into His-tagged OX40 extracellular domain at 200, 100 and 50 nM or 1600, 800 and 400 nM; 1:1 binding model, global fit
tOX40.15 = target: tOX40.15
tOX40.23 = target: tOX40.23
tOX40.54 = target: tOX40.54
tOX40.4 = target: tOX40.4
tOX40.21 = target: tOX40.21
tOX40.50 = target: tOX40.50
tOX40.19 = target: tOX40.19
tOX40.22 = target: tOX40.22
tOX40.39 = target: tOX40.39
tOX40.40 = target: tOX40.40
tOX40.41 = target: tOX40.41
tOX40.31 = target: tOX40.31
tOX40.35 = target: tOX40.35
tOX40.37 = target: tOX40.37

B1: recombinant His-tagged human OX40 extracellular domain (domain or fragment)
chain: LHCVGDTYPSNDRCCHECRPGNGMVSRCSRSQNTVCRPCGPGFYNDVVSSKPCKPCTWCNLRSGSERKQLCTATQDTVCRCRAGTQPLDSYKPGVDCAPCPPGHFSPGDNQACKPWTNCTLAGKHTLQPASNSSDAICEDRDPPATQPQETQGPPARPITVQPTEAWPRTSQGPSTRPVEVPGGRA
tOX40.15
  Kd: 6 nM
tOX40.23
  Kd: 5.2 nM
tOX40.54
  Kd: 184 nM
tOX40.4
  Kd: 9 nM
tOX40.21
  Kd: 7 nM
tOX40.50
  Kd: 29.8 nM
tOX40.19
  Kd: 7.7 nM
tOX40.22
  Kd: 7.3 nM
tOX40.39
  Kd: 90 nM
tOX40.40
  Kd: 151 nM
tOX40.41
  Kd: 58.4 nM
tOX40.31
  Kd: 22.4 nM
tOX40.35
  Kd: 2.7 nM
tOX40.37
  Kd: 12.5 nM

Source: article PMC6640694
